From PMC10397247
Like-named read-outs stand apart in the source and are kept apart here.

What was measured:
4H3905-AA = target: T1, 4H3905-AA; experiment: two-hybrid library CCmax;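 further: natural log of median RNA to DNA barcode read ratio; higher means stronger binding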
T1 chain: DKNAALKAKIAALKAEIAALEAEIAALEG

4H4038-AA = target: T2, 4H4038-AA; experiment: two-hybrid library CCmax; settings: mean of both orientations;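 further: natural log of median RNA to DNA barcode read ratio; higher means stronger binding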
T2 chain: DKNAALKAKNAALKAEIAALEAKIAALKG

4H43-AA = target: T3, 4H43-AA; experiment: two-hybrid library CCmax; settings: mean of both orientations;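 further: natural log of median RNA to DNA barcode read ratio; higher means stronger binding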
T3 chain: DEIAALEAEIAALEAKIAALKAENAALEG

4H451-AA = target: T4, 4H451-AA; experiment: two-hybrid library CCmax; settings: mean of both orientations;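 further: natural log of median RNA to DNA barcode read ratio; higher means stronger binding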
T4 chain: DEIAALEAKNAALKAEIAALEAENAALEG

4H510-AA = target: T5, 4H510-AA; experiment: two-hybrid library CCmax; settings: mean of both orientations
T5 chain: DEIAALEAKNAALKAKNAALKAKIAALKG

4H_APH = target: T6, 4H_APH; experiment: two-hybrid library CCmax; settings: mean of both orientations
T6 chain: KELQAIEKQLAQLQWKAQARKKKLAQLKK

4H_BCR = target: T7, 4H_BCR; experiment: two-hybrid library CCmax; settings: mean of both orientations
T7 chain: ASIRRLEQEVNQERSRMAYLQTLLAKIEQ

4H_GCN4 = experiment: two-hybrid library CCmax
GCN2_T = experiment: two-hybrid library CCmax
O11-AA = target: T8, O11-AA; experiment: two-hybrid library CCmax; settings: mean of both orientations
T8 chain: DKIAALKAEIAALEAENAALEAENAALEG

O13-AA = target: T9, O13-AA; experiment: two-hybrid library CCmax; settings: mean of both orientations
T9 chain: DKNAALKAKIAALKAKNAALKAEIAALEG

O14-AA = target: T10, O14-AA; experiment: two-hybrid library CCmax; settings: mean of both orientations
T10 chain: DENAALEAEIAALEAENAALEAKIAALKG

O8-bA = target: T11, O8-bA; experiment: two-hybrid library CCNG1
T11 chain: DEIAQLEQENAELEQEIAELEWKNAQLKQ

O9-bA = target: T12, O9-bA; experiment: two-hybrid library CCNG1
T12 chain: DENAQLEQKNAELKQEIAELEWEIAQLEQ

4H918-AA = target: T13, 4H918-AA; experiment: two-hybrid library CCmax
T13 chain: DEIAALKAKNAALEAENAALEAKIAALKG

4H953-AA = target: T14, 4H953-AA; experiment: two-hybrid library CCmax; settings: mean of both orientations
T14 chain: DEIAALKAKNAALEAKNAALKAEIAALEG

4H967-AA = target: T15, 4H967-AA; experiment: two-hybrid library CCmax; settings: mean of both orientations
T15 chain: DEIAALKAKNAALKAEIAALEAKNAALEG

Sequence of 4H_GCN4 (chain, as listed by the source): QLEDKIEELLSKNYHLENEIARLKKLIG

## DKNAALKAKIAALKAEIAALEAEIAALEG [4H3905-AA]
4H3905-AA
  interaction score: 1.48
4H4038-AA
  interaction score: -0.568
4H43-AA
  interaction score: 0.782
4H451-AA
  interaction score: -1.34
4H510-AA
  interaction score: -1.37
4H_APH
  interaction score: -1.84
4H_BCR
  interaction score: -1.61
4H_GCN4
  interaction score: -1.53
GCN2_T
  interaction score: -1.53
O11-AA
  interaction score: -1.04
O13-AA
  interaction score: 0.128
O14-AA
  interaction score: 0.881

## DEIAQLEQENAELEQEIAELEWKNAQLKQ [O8-bA]
O8-bA
  interaction score: -0.832
O9-bA
  interaction score: 0.317

## DENAQLEQKNAELKQEIAELEWEIAQLEQ [O9-bA]
O9-bA; mean of both orientations
  interaction score: -0.959

## DEIAALKAKNAALEAENAALEAKIAALKG [4H918-AA]
4H918-AA
  interaction score: 1.24
4H953-AA
  interaction score: 2.09
4H967-AA
  interaction score: -0.889
